B1: LGI1 (wild type, pull-down with ADAM22/23 ECD-FLAG) [human] / ADAM23 ECD-FLAG [human] (parent complex)
chain 1: KKPAKPKCPAVCTCTKDNALCENARSIPRTVPPDVISLSFVRSGFTEISEGSFLFTPSLQLLLFTSNSFDVISDDAFIGLPHLEYLFIENNNIKSISRHTFRGLKSLIHLSLANNNLQTLPKDIFKGLDSLTNVDLRGNSFNCDCKLKWLVEWLGHTNATVEDIYCEGPPEYKKRKINSLSSKDFDCIITEFAKSQDLPYQSLSIDTFSYLNDEYVVIAQPFTGKCIFLEWDHVEKTFRNYDNITGTSTVVCKPIVIETQLYVIVAQLFGGSHIYKRDSFANKFIKIQDIEILKIRKPNDIETFKIENNWYFVVADSSKAGFTTIYKWNGNGFYSHQSLHAWYRDTDVEYLEIVRTPQTLRTPHLILSSSSQRPVIYQWNKATQLFTNQTDIPNMEDVYAVKHFSVKGDVYICLTRFIGDSKVMKWGGSSFQDIQRMPSRGSMVFQPLQINNYQYAILGSDYSFTQVYNWDAEKAKFVKFQELNVQAPRSFTHVSINKRNFLFASSFKGNTQIYKHVIVDLSA
chain 2: AVNPSRGIFEEMKYLELMIVNDHKTYKKHRSSHAHTNNFAKSVVNLVDSIYKEQLNTRVVLVAVETWTEKDQIDITTNPVQMLHEFSKYRQRIKQHADAVHLISRVTFHYKRSSLSYFGGVCSRTRGVGVNEYGLPMAVAQVLSQSLAQNLGIQWEPSSRKPKCDCTESWGGCIMEETGVSHSRKFSKCSILEYRDFLQRGGGACLFNRPTKLFEPTECGNGYVEAGEECDCGFHVECYGLCCKKCSLSNGAHCSDGPCCNNTSCLFQPRGYECRDAVNECDITEYCTGDSGQCPPNLHKQDGYACNQNQGRCYNGECKTRDNQCQYIWGTKAAGSDKFCYEKLNTEGTEKGNCGKDGDRWIQCSKHDVFCGFLLCTNLTRAPRIGQLQGEIIPTSFYHQGRVIDCSGAHVVLDDDTDVGYVEDGTPCGPSMMCLDRKCLQIQALNMSSCPLDSKGKVCSGHGVCSNEATCICDFTWAGTDCSIRDPVRNLHPPKDEGPKGPSA

Variants of: B1
Experiment: pull-down; anti-FLAG antibody agarose; proteins secreted from HEK293T cells; n = 4 independent experiments; read off a plot
For chain 1 F222A, the percent of parent was ~16 % of WT. chain 1 R296A, chain 1 K297A was tested, and the percent of parent was ~9 % of WT. For chain 1 K319A, the percent of parent was ~7 % of WT. In the case of chain 1 V250A, the percent of parent is reported as ~20 % of WT. For chain 1 Y399A, the percent of parent was ~4 % of WT. With chain 1 R344A the percent of parent was ~6 % of WT. In the case of chain 1 M443A, the percent of parent is reported as ~10 % of WT.

Source: paper PMC5906670, “Structural basis of epilepsy-related ligand–receptor complex LGI1–ADAM22” (Nature Communications, 2018)
